Source: publication PMC3460868, “Crosstalk of Escherichia coli FadR with Global Regulators in Expression of Fatty Acid Transport Genes”

Columns and labels:
Details in all cases: protein: recombinant; tags: His6 (pET28); chain copies: 2; label: DIG-ddUTP 3' (terminal transferase); blunt
[1] = biological target: T1, FadR (Escherichia coli, UniProt P0A8V6 1-239); assay: EMSA; essentially complete binding by 50 nM FadR; Roche binding buffer (composition not given), 15 min, room temperature; FadR: 0.1 pmol probe in 10 ul, 0-10 pmol protein, 7% native PAGE; CRP: 0.6 pmol probe in 20 ul (legend; Methods say 0.1 or 0.2 pmol), 5-20 pmol protein, 6.5% native PAGE
[2] = biological target: CRP (Escherichia coli, UniProt P0ACJ8 1-210); assay: EMSA; cAMP (200 pmol in 20 ul); Roche binding buffer (composition not given), 15 min, room temperature; FadR: 0.1 pmol probe in 10 ul, 0-10 pmol protein, 7% native PAGE; CRP: 0.6 pmol probe in 20 ul (legend; Methods say 0.1 or 0.2 pmol), 5-20 pmol protein, 6.5% native PAGE
[3] = biological target: T1, FadR; assay: EMSA; affinity comparable to the fadL sites; Roche binding buffer (composition not given), 15 min, room temperature; FadR: 0.1 pmol probe in 10 ul, 0-10 pmol protein, 7% native PAGE; CRP: 0.6 pmol probe in 20 ul (legend; Methods say 0.1 or 0.2 pmol), 5-20 pmol protein, 6.5% native PAGE

Chain of CRP (P0ACJ8 whole entry): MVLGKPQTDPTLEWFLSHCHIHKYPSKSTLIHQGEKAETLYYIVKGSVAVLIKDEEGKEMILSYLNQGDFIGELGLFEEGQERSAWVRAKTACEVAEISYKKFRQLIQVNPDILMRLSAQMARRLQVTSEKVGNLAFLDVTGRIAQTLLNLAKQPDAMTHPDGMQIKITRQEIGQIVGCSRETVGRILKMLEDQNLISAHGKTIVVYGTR
T1 sequence (P0A8V6 whole entry): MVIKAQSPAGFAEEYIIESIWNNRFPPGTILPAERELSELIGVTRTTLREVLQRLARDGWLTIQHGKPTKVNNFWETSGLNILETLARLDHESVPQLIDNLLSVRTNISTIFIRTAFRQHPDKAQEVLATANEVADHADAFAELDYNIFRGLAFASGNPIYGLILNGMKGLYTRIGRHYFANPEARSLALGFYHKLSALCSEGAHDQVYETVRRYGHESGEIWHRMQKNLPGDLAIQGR

B1: fadL FadR site 1 (dsDNA)
DNA 1: GCAACATTCCAGCTGGTCCGACCTATACTCTCGCC
DNA 2: GGCGAGAGTATAGGTCGGACCAGCTGGAATGTTGC
Q: Does B1 bind [1]?
A: binds

B2: fadH CRP site 2 (probe 2) (dsDNA)
DNA 1: CACCGGGCGTATTCTTTTTGAATCCCATCACAAACCCCGCACTCC
DNA 2: GGAGTGCGGGGTTTGTGATGGGATTCAAAAAGAATACGCCCGGTG
Q: Does B2 bind [2]?
A: binds

B3: fadH CRP site 1 (probe 1) (dsDNA)
DNA 1: GTAACCTGGATAAAACGCGACAAGCGTCGCATCCGGCGTTATCACCGG
DNA 2: CCGGTGATAACGCCGGATGCGACGCTTGTCGCGTTTTATCCAGGTTAC
Q: Does B3 bind [2]?
A: binds

B4: fadL FadR site 2 (dsDNA)
DNA 1: CTCTCGCCACTGGTCTGATTTCTAAGATGTACCTC
DNA 2: GAGGTACATCTTAGAAATCAGACCAGTGGCGAGAG
Q: Does B4 bind [1]?
A: binds

B5: fadL CRP site 2 (probe 2) (dsDNA)
DNA 1: CCCTACACTTCGCGCTCCTGTTACAGCACGTAACATAGTTTGTATAAAAATAAATC
DNA 2: GATTTATTTTTATACAAACTATGTTACGTGCTGTAACAGGAGCGCGAAGTGTAGGG
Q: Does B5 bind [2]?
A: no binding

B6: fadD FadR site 1 (dsDNA)
DNA 1: GTAATTATCAAGCTGGTATGATGAGTTAATATTATG
DNA 2: CATAATATTAACTCATCATACCAGCTTGATAATTAC
Q: Does B6 bind [3]?
A: binds

B7: fadD CRP site (dsDNA)
DNA 1: GTAAAGATAAAAATAAATAGTGACGCGCTTCGCAACCTTTTCGTTGGG
DNA 2: CCCAACGAAAAGGTTGCGAAGCGCGTCACTATTTATTTTTATCTTTAC
Q: Does B7 bind [2]?
A: binds
